Positions count from the first letter of the chain named.
B1: Mb_pICAM2_L1 (designed binder)
chain: VSSVPTKLEVVAATPTSLLISWDAGYWSSVAYYRITYGETGGNSPVQEFTVPGSSSTATISGLKPGVDYTITVYAMTSGYSWYSPISINYRT
notes: Identified by yeast display
B2: Mb_pICAM2_L11 (designed binder)
chain: B1 chain with G53S
notes: Identified by yeast display
B3: Mb_pICAM2_L22 (designed binder)
chain: B1 chain with S56Y, M76K, G79D
notes: Identified by yeast display
B4: Mb_pICAM2_L6 (designed binder)
chain: B1 chain with G53S, M76Q, G79M
notes: Identified by yeast display
B5: Mb_pICAM2_L14 (designed binder)
chain: B1 chain with A31S, S56Y, M76Q, G79Y
notes: Identified by yeast display
B6: Mb_ICAM2_S40 (designed binder)
chain: VSSVPTKLEVVAATPTSLLISWDAPAVTVLYYFITYGETGGNSPVQEFAVPGSKSTATISGLKPGVDYTITVYALSSKWRYSPISINYRT
modifications: biotin on the Avi-tag (enzymatic biotinylation with BirA) in the BLI and flow cytometry assays
notes: Monobody (FN3 domain from human 10FN3); Purified form carries N-terminal His6 and Avi tags; not shown: N-terminal tags containing His6 and Avi-tag
B7: Mb_ICAM2_S36 (designed binder)
chain: B6 chain with G41H, N42G, P44A, V45Y, S76W, S77Y, W79G, R80I, Y81T
modifications: biotin on the Avi-tag (enzymatic biotinylation with BirA) in the BLI assay
notes: as for B6
B8: Mb_ICAM2_S32 (designed binder)
chain: B6 chain with L75I, S76N, S77Q, K78Y, R80K
modifications: biotin on the Avi-tag (enzymatic biotinylation with BirA) in the BLI assay
notes: as for B6
B9: Negative control monobody (SEQ ID NO: 34) (designed binder)
chain: VSSVPTKLEVVAATPTSLLISWDASSSSVSYYRITYGETGGNSPVQEFTVPGSKSTATISGLKPGVDYTITVYASSSSSSSSSSSKPISINYRT
notes: Tested conjugated to streptavidin DyLight 650; The tags and biotinylation of this control are not described
B10: Mb_ICAM2_S38 (designed binder)
chain: VSSVPTKLEVVAATPTSLLISWDAPAVTVLYYFITYGETGPASYGAQEFAVPGSKSTATISGLKPGVDYTITVYAISNKWKYSPISINYRT
modifications: biotin on the Avi-tag (enzymatic biotinylation with BirA) in the BLI assay
notes: as for B6

Legend:
[1] = biological target: T1, Pig ICAM-2 extracellular region (UniProt ID Q6VY03; residues 24-250), C-terminally fused to His6 and Avi-tags (pig, UniProt Q6VY03 24-250, Possibly biotinylated on the Avi-tag, as for human ICAM-2 in Example 1; this is not stated for pig. The tag is not included in the letters.); assay: BLI (Octet) of the monobody with pig ICAM-2
T1 construct: also called pICAM-2
T1 sequence: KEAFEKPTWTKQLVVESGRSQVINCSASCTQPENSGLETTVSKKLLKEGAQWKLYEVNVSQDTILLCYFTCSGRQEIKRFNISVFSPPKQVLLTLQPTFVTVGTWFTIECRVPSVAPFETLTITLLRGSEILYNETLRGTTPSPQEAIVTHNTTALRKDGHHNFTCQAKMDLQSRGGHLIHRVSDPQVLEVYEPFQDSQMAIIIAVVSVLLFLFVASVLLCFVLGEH
From the text: (§1) The four monobody samples identified in Example 1 were produced as purified proteins with N-terminal tags containing His6 and Avi-tag, followed by enzymatic biotinylation using the BirA enzyme. The proteins were immobilized on streptavidin-coated biolayer interferometry (BLI) tips using an Octet instrument (Sartorius) and their interaction with human ICAM-2 was monitored with the instrument (FIG. 1).
Biolayer interferometry (BLI) for five of the monobodies (Mb_pICAM2_L1, Mb_pICAM2_L6, Mb_pICAM2_L11, Mb_pICAM2_L14, and Mb_pICAM2_L22) was carried out using the procedures and equipment described above (FIG. 5).

[2] = biological target: T2, Human ICAM-2 extracellular region (UniProt ID P13598; residues 25-223), C-terminally fused to His6 and … (human, UniProt P13598 25-223, biotinylated with BirA (Avi-tag) when used as selection antigen); assay: BLI (Octet): biotinylated monobody on streptavidin tips, human ICAM-2 in solution; global 1:1 fit without the highest concentration
T2 construct: range 25-223; Expressed from EXPI293 cells; also called hICAM-2; not shown: C-terminal His6 and Avi-tags
T2 sequence (looked up): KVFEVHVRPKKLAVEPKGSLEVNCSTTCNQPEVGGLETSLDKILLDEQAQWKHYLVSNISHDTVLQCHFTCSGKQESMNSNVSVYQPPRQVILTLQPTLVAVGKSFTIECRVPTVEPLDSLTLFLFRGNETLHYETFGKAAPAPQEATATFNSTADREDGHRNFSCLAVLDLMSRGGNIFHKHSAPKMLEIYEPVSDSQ
Method: as §1
FIG. 1 depicts BLI sensorgrams. The global fitting of the 1:1 binding model was performed on the data after excluding the highest concentration sensorgrams, because the association rates in the highest concentration data are too high for accurate fitting. The KD values from the global fitting are shown.

[3] = biological target: T3, Endogenous human ICAM-2 on the surface of Primary Umbilical Vein Endothelial Cells (HUVEC) (human, UniProt P13598 25-275); assay: Flow cytometry (MFI) of negative control monobody bound to streptavidin DyLight 650 on HUVEC; concentration as monomer [panel B]
T3 construct: whole, on cells; also called cell surface ICAM-2; endogenous ICAM-2
T3 sequence (looked up): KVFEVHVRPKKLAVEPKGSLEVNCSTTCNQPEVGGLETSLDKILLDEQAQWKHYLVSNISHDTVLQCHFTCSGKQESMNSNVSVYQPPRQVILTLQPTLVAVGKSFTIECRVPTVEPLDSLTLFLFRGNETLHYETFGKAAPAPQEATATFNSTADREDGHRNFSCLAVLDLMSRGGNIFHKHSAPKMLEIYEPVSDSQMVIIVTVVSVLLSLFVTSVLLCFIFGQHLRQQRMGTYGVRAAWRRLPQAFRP
Method: Whether Mb_ICAM2_S40 detected endogenous ICAM-2 molecules expressed on the surface of human cells was tested. […] The expression of ICAM-2 in HUVEC but not in Expi293 was confirmed using a commercially available anti-hICAM-2 antibody (FIG. 2D).

Binder | Kd [1] | Kd [2] | further results
B1 | 19.3 nM | – | –
B2 | 12.1 nM | – | –
B3 | 16.8 nM | – | –
B4 | 14 nM | – | –
B5 | 11.8 nM | – | –
B6 | – | – | apparent Kd (pooled screen) [2]: 14 nM
B7 | – | 4.5 nM | –
B8 | – | 5.9 nM | –
B9 | – | – | binding result [3]: no binding (tested: 200 nM)
B10 | – | 26 nM | –

Source: patent publication US20260250391A1 (NEW YORK UNIVERSITY, published 2026)
